Data from patent publication US20260028422A1 (CONCEPT TO MEDICINE BIOTECH, published 2026).
Substitutions are numbered along the chain they refer to. Like-named read-outs stand apart in the source and are kept apart here. Blank lines part the entries; values can stand above or below the binder they belong to.

Assays:
human MerTK-his protein [1] = molecular target: T1, human MerTK-his protein (human, UniProt Q12866 21-505); assay: ELISA, plate coated with human MerTK-his, OD 450nm
T1 construct: extracellular domain; also called hMerTK-His; human MerTK protein
T1 sequence (looked up): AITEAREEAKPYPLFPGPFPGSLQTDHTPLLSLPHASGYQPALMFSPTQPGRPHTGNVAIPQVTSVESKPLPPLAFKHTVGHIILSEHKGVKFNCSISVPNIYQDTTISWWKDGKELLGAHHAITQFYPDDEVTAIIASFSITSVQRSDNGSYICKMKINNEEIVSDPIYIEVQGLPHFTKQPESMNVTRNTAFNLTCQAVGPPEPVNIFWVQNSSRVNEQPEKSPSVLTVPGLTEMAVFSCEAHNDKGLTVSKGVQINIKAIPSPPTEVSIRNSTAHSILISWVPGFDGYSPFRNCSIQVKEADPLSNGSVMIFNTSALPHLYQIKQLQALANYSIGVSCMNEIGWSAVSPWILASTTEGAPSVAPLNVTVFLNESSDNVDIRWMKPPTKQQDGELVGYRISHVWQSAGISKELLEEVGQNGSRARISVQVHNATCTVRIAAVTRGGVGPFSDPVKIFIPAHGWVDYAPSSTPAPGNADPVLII
Description: (§1) To evaluate the binding activity, the chimeric mAbs were subjected to ELISA test. Briefly, 96-well plates were coated with human or cyno MerTK-his protein at 2 μg/mL in PBS, 100 μL/well at 4° C. overnight, then blocked with 150 μL/well of 1% BSA. Five-fold dilutions of MerTK antibodies starting from 20 nM were added to each well and incubated for 1 hour at room temperature. The plates were washed with PBS/Tween-20 and then incubated with goat anti-human IgG Fe antibody conjugated with Horse Radish Peroxidase (HRP) for 30 minutes (mins) at room temperature. After washing, the plates were developed with TMB substrate and subsequent stop solution was added to complete the reaction. The signal from each well was read by spectrophotometer at OD 450 nm.
(§2) To evaluate the antigen binding activity, the humanized antibodies were subjected to ELISA test as described before.

human MerTK-his protein [2] = molecular target: T1, human MerTK-his protein; assay: SPR Biacore 8K, antibody captured on Protein A chip, 50 nM antigen
Description: To explore whether the humanized antibodies could maintain their binding kinetics, affinity ranking were performed with Biacore™. The antibodies were captured with a Protein A chips. Human MerTK-his protein at 50 nM was injected over captured antibodies for 180 s at a flow rate of 30 μL/min. The antigen was allowed to dissociate for 600 s. The experiment was carried out on a Biacore™ 8K. Data analysis was carried out using Biacore™ 8K evaluation software.

[3] = molecular target: T2, human MerTK expressed on cells (human, UniProt Q12866 21-999); assay: FACS on CHO-K1 cells overexpressing human MerTK, MFI (AF488)
T2 construct: whole, on cells; also called CHO-K1-hMerTK; CHO-K1-MerTK
T2 sequence (looked up): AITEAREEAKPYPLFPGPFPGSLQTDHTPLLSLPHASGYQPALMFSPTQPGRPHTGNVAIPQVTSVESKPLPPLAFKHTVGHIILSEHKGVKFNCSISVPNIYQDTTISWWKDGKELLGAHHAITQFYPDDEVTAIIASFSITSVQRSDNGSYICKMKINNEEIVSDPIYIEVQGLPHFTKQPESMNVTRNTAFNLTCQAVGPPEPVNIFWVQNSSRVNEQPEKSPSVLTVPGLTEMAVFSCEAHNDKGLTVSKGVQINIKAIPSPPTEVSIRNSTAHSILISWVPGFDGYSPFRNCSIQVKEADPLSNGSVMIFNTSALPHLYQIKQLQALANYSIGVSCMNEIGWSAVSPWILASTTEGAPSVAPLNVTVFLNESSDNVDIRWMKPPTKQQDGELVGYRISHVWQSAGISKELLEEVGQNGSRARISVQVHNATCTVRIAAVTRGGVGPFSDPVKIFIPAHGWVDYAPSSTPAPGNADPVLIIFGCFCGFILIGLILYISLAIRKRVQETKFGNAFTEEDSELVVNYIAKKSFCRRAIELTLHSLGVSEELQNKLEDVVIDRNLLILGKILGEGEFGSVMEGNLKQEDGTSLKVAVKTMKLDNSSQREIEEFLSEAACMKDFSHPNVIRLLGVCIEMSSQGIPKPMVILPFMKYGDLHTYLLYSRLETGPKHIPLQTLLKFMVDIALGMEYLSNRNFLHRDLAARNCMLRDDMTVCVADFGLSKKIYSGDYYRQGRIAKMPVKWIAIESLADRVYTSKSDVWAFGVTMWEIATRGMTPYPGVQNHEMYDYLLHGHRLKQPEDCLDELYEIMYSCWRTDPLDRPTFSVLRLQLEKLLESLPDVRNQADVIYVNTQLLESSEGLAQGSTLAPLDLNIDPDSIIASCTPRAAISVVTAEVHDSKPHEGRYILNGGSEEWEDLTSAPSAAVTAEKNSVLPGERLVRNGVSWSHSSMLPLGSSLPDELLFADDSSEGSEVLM

human MerTK-his protein [4] = molecular target: T1, human MerTK-his protein; assay: ELISA, plate coated with human MerTK-his, OD 450nm; remark: listed apart in the source
Description: as §1, §2

[5] = molecular target: T2, human MerTK expressed on cells; assay: FACS on CHO-K1 cells overexpressing human MerTK, MFI (AF488); remark: listed apart in the source
[6] = molecular target: T2, human MerTK expressed on cells; assay: FACS on CHO-K1 cells overexpressing human MerTK, MFI (PE)
Description: To evaluate the binding property to the antigen expressed on the cells, the chimeric monoclonal antibodies were analyzed for their binding to human MerTK overexpressed on CHO-K1 cells by FACS. Briefly, human MerTK overexpressing CHO-K1 (CHO-K1-MerTK) cells were firstly incubated with 5-fold serially diluted mAbs starting at 20 nM at 4° C. for 1 hour. After washing with FACS buffer, the PE conjugated anti-human IgG-Fc secondary antibody was added to each well and incubated at 4° C., for 30 mins. The mean fluorescence intensity (MFI) of PE were evaluated by QuantAnalyzer 16.
To evaluate the binding property to the antigen expressed on the cells, the humanized antibodies were analyzed by FACS as described before.

EC50 (human MerTK-his protein [1]): 0.054 nM
Kd (human MerTK-his protein [2]): 1.27 nM
koff (human MerTK-his protein [2]): 0.00025 s⁻¹
kon (human MerTK-his protein [2]): 197000 M⁻¹ s⁻¹
EC50 [3]: 0.14 nM
B3: 265F11B5Hu-2 (antibody, V domains shown)
VH: QVQLVQSGAEVKKPGASVKVSCKASGYTFTTYDINWVRQAPGQGLEWMGWIYPRDGYTKYNEKFKGRVTMTTDTSTSTAYMELRSLRSDDTAVYYCTRGYYDNLYYFDYWGQGTTVTVSS
VL: EIVLTQSPDFQSVTPKEKVTITCSASSIISSNYFHWYQQKPDQSPKLLIKRTSNLASGVPSRFSGSGSGTDFTLTINSLEAEDAATYYCQQGRSVPLTFGQGTKLEIK

EC50 (human MerTK-his protein [1]): 0.068 nM
Kd (human MerTK-his protein [2]): 0.856 nM
koff (human MerTK-his protein [2]): 0.000172 s⁻¹
kon (human MerTK-his protein [2]): 201000 M⁻¹ s⁻¹
EC50 [3]: 0.13 nM
B6: 265F11B5Hu-4 (antibody, V domains shown)
VH: B3 VH with M48I, V68A, M70L, T71A, T72V, Y95F
VL: B3 VL

EC50 (human MerTK-his protein [4]): 0.042 nM
Kd (human MerTK-his protein [2]): 1.94 nM
koff (human MerTK-his protein [2]): 0.000378 s⁻¹
kon (human MerTK-his protein [2]): 195000 M⁻¹ s⁻¹
EC50 [5]: 0.22 nM
B7: 265F11B5Hu-11 (antibody, V domains shown)
VH: B3 VH with M48I, V68A, Y95F
VL: B3 VL with K50Y, F72Y

EC50 (human MerTK-his protein [1]): 0.042 nM
Kd (human MerTK-his protein [2]): 1.15 nM
koff (human MerTK-his protein [2]): 0.000232 s⁻¹
kon (human MerTK-his protein [2]): 201000 M⁻¹ s⁻¹
EC50 [3]: 0.16 nM
B8: 265F11B5Hu-1 (antibody, V domains shown)
VH: B3 VH with T97A
VL: B3 VL

EC50 (human MerTK-his protein [1]): 0.062 nM
Kd (human MerTK-his protein [2]): 1.16 nM
koff (human MerTK-his protein [2]): 0.000232 s⁻¹
kon (human MerTK-his protein [2]): 200000 M⁻¹ s⁻¹
EC50 [3]: 0.17 nM
B9: 265F11B5Hu-5 (antibody, V domains shown)
VH: B3 VH with T97A
VL: B3 VL with F72Y

EC50 (human MerTK-his protein [1]): 0.033 nM
EC50 [6]: 0.45 nM
B13: 10F7D9 Hu-6 (antibody, V domains shown)
VH: QVQLVQSGSELKKPGASVKISCKASGYTFTNYGMNWVRQAPGQGLEWMGWINTYTGEPTYADDFKGRFVFSLDTSVSTAYLQINNLKAEDTAVYFCATYGHYAWFAYWGQGTLVTVSS
VL: EIVLTQSPDFQSVTPKEKVTITCRASSSVSYMHWYQQKPDQSPKLLIKATSNLASGVPSRFSGSGSGTDFTLTINSLEAEDAATYYCQQWGTKPLTFGQGTKLEIK
notes: also called Hu-6 of 10F7D9

EC50 (human MerTK-his protein [1]): 0.034 nM
EC50 [6]: 1.2 nM
B15: 10F7D9 Hu-3 (antibody, V domains shown)
VH: B13 VH with V2I, I20V, N84S, N85S
VL: B13 VL
notes: also called Hu-3 of 10F7D9

EC50 (human MerTK-his protein [1]): 0.028 nM
EC50 [6]: 0.29 nM
B17: 10F7D9 Hu-1 (antibody, V domains shown)
VH: B13 VH with I20V, N84S, N85S, F95Y, T98R
VL: B13 VL
notes: also called Hu-1 of 10F7D9

More lines, now with the values behind:

B1: 265F11B5Hu-6 (antibody, V domains shown)
VH: B3 VH
VL: B3 VL with F72Y
EC50 (human MerTK-his protein [1]): 0.044 nM
Kd (human MerTK-his protein [2]): 1.4 nM
koff (human MerTK-his protein [2]): 0.000278 s⁻¹
kon (human MerTK-his protein [2]): 199000 M⁻¹ s⁻¹
EC50 [3]: 0.17 nM

B2: 265F11B5Hu-9 (antibody, V domains shown)
VH: B3 VH with T97A
VL: B3 VL with K50Y, F72Y
EC50 (human MerTK-his protein [1]): 0.059 nM
Kd (human MerTK-his protein [2]): 2.17 nM
koff (human MerTK-his protein [2]): 0.000443 s⁻¹
kon (human MerTK-his protein [2]): 204000 M⁻¹ s⁻¹
EC50 [3]: 0.19 nM

B4: 265F11B5Hu-7 (antibody, V domains shown)
VH: B3 VH with M48I, V68A, Y95F
VL: B3 VL with F72Y
EC50 (human MerTK-his protein [1]): 0.021 nM
Kd (human MerTK-his protein [2]): 0.719 nM
koff (human MerTK-his protein [2]): 0.000155 s⁻¹
kon (human MerTK-his protein [2]): 216000 M⁻¹ s⁻¹
EC50 [3]: 0.14 nM

B5: 265F11B5Hu-3 (antibody, V domains shown)
VH: B3 VH with M48I, V68A, Y95F
VL: B3 VL
EC50 (human MerTK-his protein [1]): 0.06 nM
Kd (human MerTK-his protein [2]): 1.02 nM
koff (human MerTK-his protein [2]): 0.000204 s⁻¹
kon (human MerTK-his protein [2]): 199000 M⁻¹ s⁻¹
EC50 [3]: 0.22 nM

B10: 265F11B5Hu-8 (antibody, V domains shown)
VH: B3 VH with M48I, V68A, M70L, T71A, T72V, Y95F
VL: B3 VL with F72Y
EC50 (human MerTK-his protein [1]): 0.037 nM
Kd (human MerTK-his protein [2]): 0.174 nM
koff (human MerTK-his protein [2]): 3.95e-05 s⁻¹
kon (human MerTK-his protein [2]): 227000 M⁻¹ s⁻¹
EC50 [3]: 0.14 nM

B11: 265F11B5Hu-10 (antibody, V domains shown)
VH: B3 VH
VL: B3 VL with K50Y, F72Y
EC50 (human MerTK-his protein [1]): 0.045 nM
Kd (human MerTK-his protein [2]): 2.52 nM
koff (human MerTK-his protein [2]): 0.000463 s⁻¹
kon (human MerTK-his protein [2]): 184000 M⁻¹ s⁻¹
EC50 [3]: 0.19 nM

B12: 10F7D9 Hu-2 (antibody, V domains shown)
VH: B13 VH with V2I, I20V, N84S, N85S, F95Y
VL: B13 VL
notes: also called Hu-2 of 10F7D9
EC50 (human MerTK-his protein [1]): 0.035 nM
EC50 [6]: 0.45 nM

B14: 10F7D9 Hu-4 (antibody, V domains shown)
VH: B13 VH with V2I, I20V, E46K, N84S, N85S
VL: B13 VL
notes: also called Hu-4 of 10F7D9
EC50 (human MerTK-his protein [1]): 0.027 nM
EC50 [6]: 0.47 nM

B16: 10F7D9 Hu-14 (antibody, V domains shown)
VH: B13 VH with V2I, I20V, N84S, N85S, F95Y
VL: B13 VL with L45P, L46W, K48Y, Y86F
notes: also called Hu-14 of 10F7D9
EC50 (human MerTK-his protein [1]): 0.027 nM
EC50 [6]: 0.15 nM

B18: 10F7D9 Hu-8 (antibody, V domains shown)
VH: B13 VH with V2I, I20V, N84S, N85S, F95Y
VL: B13 VL with L45P, L46W
notes: also called Hu-8 of 10F7D9
EC50 (human MerTK-his protein [1]): 0.0024 nM
EC50 [6]: 0.1 nM
